Assay results taken from the supplement of paper PMC10126150.
± gives the standard deviation of the averaged measurements.

Test system: ATP
Assay: switch fluorescence ratio, 500 uM ATP over buffer (Cy3 cluster intensity, sum of 5 cycles each) (fold (ratio)); higher = stronger signal-on switching upon ATP binding; sequences stand for … in TCGTCGGCAGCGTCAGATGTGTATAAGAGACAGTTTTTTTTTTTTTTTTTTTTTTTTT…TC
Conditions: aptamer strand: ATP DNA aptamer (quencher-CACCTGGGGGAGTATTGCGGAGGAAGG + anchor), 100 nM annealed; ATP concentration: 500 uM
In short: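 Per cluster, summed Cy3 intensity from the target cycles was divided by that from the buffer cycles to give the fluorescence ratio, then averaged per switch-domain sequence. Clusters outside 100-1000 RFU were excluded. The Cy3-labelled switching-strand clusters, on a modified Illumina MiSeq flow-cell, were annealed to 100 nM quencher-labelled ATP aptamer and imaged in selection buffer, then after 15 min with 500 uM ATP at 22 °C, for five cycles with NaOH stripping and re-annealing between them.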
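Further: ATP exposure 15 min at 22 °C before imaging.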

Sequence | switch fluorescence ratio
CCTATTTTTT | 1.01 ± 0.034
TATCATGGGG | 0.996 ± 0.031
CTAGGGAGGT | 0.9701 ± 0.002
ATGTTTATCG | 0.97 ± 0.016
AGAGGTTATT | 0.9994 ± 0.0069
GTTAGAAAAA | 1.03 ± 0.023
CTCATATTTA | 1.01 ± 0.019
AGATGTCTAC | 0.989 ± 0.018
AGATGGTAGG | 0.986 ± 0.023
CCAAGGTGGG | 1.1 ± 0.016
AAAACCGAAA | 1.11 ± 0.1
AAGTTCCGGA | 1.034 ± 0.0072
TCGAGATCCG | 0.996 ± 0.018
TGAAAAGTCG | 0.99334 ± 0.00072
AAGGGGCTTG | 0.986 ± 0.036
TTAAGCTAAT | 1.42 ± 0.5
TTTGAAATTT | 1.006 ± 0.0096
TTTTCTTTT | 1.02 ± 0.024
TGGCGAAGTT | 0.997 ± 0.024
GAAGGGGAAA | 1 ± 0.045
GGGGGCCTTT | 0.995 ± 0.02
AGCTCTGACG | 1.02 ± 0.024
ATGGGTTAGC | 0.998 ± 0.011
CGTAGGAGG | 0.9784 ± 0.0044
GCATCATATG | 0.998 ± 0.028

Sequence | switch fluorescence ratio
ACTATGCGGG | 0.982 ± 0.017
CGGTACGGAT | 0.989 ± 0.043
TTCCCAGCAG | 1.68 ± 0.65
AGTTTTTTAT | 1 ± 0.022
TTAGACTTTT | 1.03 ± 0.012
TATGTAATGT | 0.993 ± 0.031
GCGGGGTCGG | 1.0083 ± 0.00048
TGGGGGCGCG | 0.984 ± 0.042
CATTTACCAT | 1.03 ± 0.014
TAAAGGTATC | 0.9977 ± 0.0048
ACCGAGATCA | 1.03 ± 0.014
ACTACTGGGA | 0.976 ± 0.041
CGCACCTGAG | 1.23 ± 0.044
TTTGTGGGTT | 0.997 ± 0.025
AGATGAATGC | 0.989 ± 0.011
AGAGAGTTAT | 1.02 ± 0.011
TGGTTCCAGT | 1.003 ± 0.0058
GTTTGGGTGT | 1 ± 0.016
TTGATTATCC | 0.99 ± 0.019
CGGATGTGGT | 0.973 ± 0.016
GCGCAGTGGC | 1.23 ± 0.058
TGATAGTTGA | 1.005 ± 0.0026
GGGAGGGGCG | 1 ± 0.023
TTATTCGATT | 0.982 ± 0.019
TGTCCGGGCT | 0.999 ± 0.028

Sequence | switch fluorescence ratio
TCGGGAACGC | 1.04 ± 0.032
ACTGAGGGGG | 1 ± 0.01
TCTACGCACT | 2.62 ± 0.15
CGGCCTTGCA | 1.026 ± 0.0095
CTAAACGGTG | 1.03 ± 0.012
TGAGATTCTG | 1.05 ± 0.043
CTGATATTGT | 0.9844 ± 0.0066
TATGTGGTTG | 0.99 ± 0.016
GGGGGCATAT | 1.02 ± 0.026
TATCGGATGG | 1.0207 ± 0.00094
TAGTTTTCAG | 1.02 ± 0.047
TTAGATCGGG | 0.989 ± 0.011
TTTGAATGGA | 1 ± 0.012
ATGGATCTCA | 1 ± 0.0063
GAACGATACA | 1.334 ± 0.012
GTGCATGGGA | 0.997 ± 0.055
GCATGGGGAT | 1.02 ± 0.051
AAGGACGGTG | 1.0045 ± 0.00079
ATGCGGGTGC | 1.04 ± 0.039
CGGCCCAAGG | 1.22 ± 0.022
TTTTGAGCTG | 1.02 ± 0.029
AGGTAGAGAG | 0.992 ± 0.038
AGAAGAGTTT | 0.95 ± 0.018
GGGAGGTGTT | 1.037 ± 0.009
CCGGGTCAGC | 1.21 ± 0.026

Sequence | switch fluorescence ratio
CATAGGGGAG | 1.042 ± 0.01
GCTTGTTGGG | 1.02 ± 0.038
TAAAGCATTA | 1.04 ± 0.025
GAAACATACG | 1.33 ± 0.026
ATTTAGGATG | 1.01 ± 0.021
AGTTTAGGGT | 1.03 ± 0.054
GTTATAGCGT | 0.963 ± 0.026
CGAGGTTATT | 1 ± 0.037
GGCGGAGTAT | 1 ± 0.017
GCTATTGGGG | 0.993 ± 0.014
AAGGGGGTGG | 1.02 ± 0.059
GAAATGTTGG | 0.981 ± 0.024
TAAATTAGCT | 1.02 ± 0.037
TGGATCACTT | 1.01 ± 0.028
GTACTATTAT | 1.038 ± 0.0052
CGCGTAATAT | 2.07 ± 0.069
TGGGGTTCGA | 0.975 ± 0.024
AGACATTCCT | 1.3 ± 0.34
GTACCATCTG | 0.976 ± 0.02
TAGGGCTGTA | 0.993 ± 0.049
TTGGGCGGGA | 0.968 ± 0.099
GGGATGGGGT | 0.988 ± 0.029
TTGGGCAACA | 1.05 ± 0.079
AAGTCGCGGA | 0.999 ± 0.033
CGGGAATAAA | 0.993 ± 0.016

Sequence | switch fluorescence ratio
TAAACAATTT | 0.978 ± 0.013
CCTATTACGA | 1.04 ± 0.015
AGGATGGACG | 1.02 ± 0.064
GTGGGAGCGT | 0.97882 ± 0.00039
ATTCACCCGC | 1.48 ± 0.13
GTTGCTGGGG | 0.998 ± 0.011
TTATAATGGG | 0.988 ± 0.025
AATCAGGGTG | 1.16 ± 0.01
GCCAGTTTGC | 0.998 ± 0.015
ATGCGTGGAA | 1.02 ± 0.027
ATATAGTCTG | 0.9893 ± 0.0046
TTTTTGGGCT | 0.996 ± 0.028
GGCCTAATAG | 1 ± 0.034
CTTTGGCAGA | 1.03 ± 0.043
ATTGCAAATC | 1.027 ± 0.0094
TTGGGTGCAG | 1.016 ± 0.0075
ATTTTTCGTT | 1 ± 0.03
CCGAATGAGG | 0.995 ± 0.032
TTGAGTTCTC | 0.978 ± 0.016
TGAGGATTTT | 1.05 ± 0.1
ATTGGACGTT | 0.988 ± 0.016
ACTTAATGTA | 1 ± 0.03
GGCGGTATAG | 1.02 ± 0.013
CGTAAAAGAC | 1.23 ± 0.19
GTGTGTGGGC | 1.04 ± 0.061

Sequence | switch fluorescence ratio
CTAATTGAGT | 1.01 ± 0.014
GATAGTGGCA | 1.03 ± 0.023
CTGTGGGTAG | 1.03 ± 0.021
CTAGCCGGGA | 1.017 ± 0.009
TTCACAAGGT | 1.004 ± 0.0049
TTTTACAAGA | 0.996 ± 0.043
AAACTAAGAA | 1 ± 0.016
AAGGACACGG | 1.042 ± 0.01
CCAGGGTATC | 1.064 ± 0.0063
TAAAGGGGGT | 1.01 ± 0.047
TTTACGAGTG | 1.03 ± 0.019
CCTGTGGGGG | 0.993 ± 0.028
TATGATAGGT | 0.9914 ± 0.0013
GCAACTATT | 2.42 ± 2
AAGGTTAGGT | 1.03 ± 0.041
GCTTTGTTGG | 0.984 ± 0.035
TGGCCGGCTT | 1.044 ± 0.0066
TTGGAAATGG | 1.03 ± 0.045
GGAGGCGGTG | 1.048 ± 0.0039
AAGGACCCCT | 1.06 ± 0.026
TTTGAGAAAT | 0.994 ± 0.029
GATCTGTCAG | 1.01 ± 0.021
GTTAAGTTTT | 0.985 ± 0.021
GAAGGGATGC | 1.26 ± 0.073
CGGGATACGG | 1.19 ± 0.065

Sequence | switch fluorescence ratio
TTAGCGTTGT | 0.96 ± 0.028
CGGCATTGGG | 1.02 ± 0.04
CCGTCGGTCG | 1 ± 0.023
GGGAAATAGG | 1.01 ± 0.023
ACCAGGGCAT | 1.067 ± 0.0076
ATTAAATTTC | 0.987 ± 0.014
CGGGAGGTGC | 1.02 ± 0.033
TATGAGGGCG | 1.04 ± 0.041
TCGTCGTGGG | 1.02 ± 0.025
CATATTGGAT | 1.02 ± 0.036
AGGGCAAGCG | 0.938 ± 0.041
CGTAGACTCG | 1.02 ± 0.05
GAGGGACAAT | 0.9882 ± 0.0066
TTGGCTTAGT | 0.991 ± 0.034
TGGTTGTCGT | 1.01 ± 0.033
AGAGCGGCAA | 2.81 ± 2.4
GGACAAAACT | 1.08 ± 0.12
AGGGGATTGG | 0.991 ± 0.015
GCTGATTTTT | 0.994 ± 0.025
ACCGGTTTTC | 0.984 ± 0.023
AGCATTTTCA | 1.24 ± 0.32
TGGGTTCCCG | 0.986 ± 0.013
TGGGGAAACG | 0.9455 ± 0.0068
CTTTTTTATT | 1.01 ± 0.0085
GCAGGACATA | 1.06 ± 0.027

Sequence | switch fluorescence ratio
AATCAGGGTA | 1.01 ± 0.04
AGACGAGGCT | 1.01 ± 0.021
GCAGTTGAGT | 1.01 ± 0.017
TAACTCTGAG | 0.979 ± 0.015
TTTATGCACC | 1.07 ± 0.017
TTCTGGCGCG | 0.984 ± 0.015
TATGCATTTC | 1.08 ± 0.0049
TGAGGTATCT | 1.007 ± 0.0091
TTAGGGGGAA | 1.01 ± 0.025
TGTTGGGTGC | 0.996 ± 0.037
CATGCTTTCT | 0.9836 ± 0.0079
TGGGGGTGGC | 1.01 ± 0.052
GAAGATTGGG | 0.998 ± 0.053
TTATGCTAAA | 0.994 ± 0.04
GCAGTGTGCG | 0.985 ± 0.025
AGGTCTTTCG | 1.002 ± 0.003
CGTGCGGGTG | 1.03 ± 0.006
TGGTGGCCCG | 1.04 ± 0.035
TTGGGGGATC | 0.982 ± 0.015
TTTCGAATTG | 0.975 ± 0.019
AAAGATTATT | 1 ± 0.021
CGTCGAGGGA | 1.1 ± 0.12
GCATTAAGAT | 1.02 ± 0.025
AAAGGCCTTA | 1.01 ± 0.045
GAGATGGTTT | 0.997 ± 0.024
